Laboratory results from patent US20250092135A1 (NANJING LEADS BIOLABS, published 2025).

Legend:
[1] = target: T1, human MUC16 protein (ECT_TM huMuc16) on 293T cells (human); test: flow cytometry, 293T/hMUC16 cells, PE anti-human IgG Fc secondary, MFI; EC50 table under the plot, unit from the axis Conc.(nM)
T1 chain: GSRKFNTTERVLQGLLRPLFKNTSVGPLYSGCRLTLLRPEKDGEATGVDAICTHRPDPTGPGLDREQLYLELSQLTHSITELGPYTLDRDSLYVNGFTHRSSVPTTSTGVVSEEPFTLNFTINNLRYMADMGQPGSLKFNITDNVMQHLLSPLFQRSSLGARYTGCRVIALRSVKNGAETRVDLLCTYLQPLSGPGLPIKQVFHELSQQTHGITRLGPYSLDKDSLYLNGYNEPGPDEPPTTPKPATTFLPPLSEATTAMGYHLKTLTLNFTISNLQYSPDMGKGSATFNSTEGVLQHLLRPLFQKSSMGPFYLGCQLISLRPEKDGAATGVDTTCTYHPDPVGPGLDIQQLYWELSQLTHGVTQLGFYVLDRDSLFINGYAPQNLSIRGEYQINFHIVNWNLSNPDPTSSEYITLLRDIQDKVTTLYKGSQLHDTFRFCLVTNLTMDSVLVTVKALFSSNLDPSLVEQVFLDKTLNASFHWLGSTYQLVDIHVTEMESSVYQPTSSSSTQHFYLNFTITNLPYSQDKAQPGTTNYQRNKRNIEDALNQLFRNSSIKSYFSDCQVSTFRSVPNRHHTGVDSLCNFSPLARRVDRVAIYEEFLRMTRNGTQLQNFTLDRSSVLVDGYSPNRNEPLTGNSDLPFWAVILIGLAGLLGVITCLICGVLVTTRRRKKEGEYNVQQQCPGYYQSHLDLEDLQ
Method: The serially diluted anti-human MUC16 antibodies (at an initial concentration of 200 nM, 4-fold dilution, 8 points in total) obtained in the present application were added to the cells, and the cells were incubated at 4° C. for 30 min. The cells were washed twice with PBS, and then fluorescent secondary antibody R-PE-conjugated AffiniPure Goat Anti-Human IgG, Fcγ Fragment Specific (Jackson ImmunoResearch, Cat #109-116-098) was added. The cells were incubated at 4° C. for 30 min. The cells were washed twice with PBS and then resuspended, and finally, fluorescence signals were detected using a BD Accuri C5 (BD Bioscience) flow cytometer.

[2] = target: T2, Human MUC16-His (human); test: BLI (ForteBio Octet RED96), antibody on AHC sensor, 50 nM antigen, 1:1 model
T2 construct: The entry includes the C-terminal 6xHis tag; also called membrane-proximal end of the extracellular region of the human MUC16 protein; Human MUC16 protein
T2 chain: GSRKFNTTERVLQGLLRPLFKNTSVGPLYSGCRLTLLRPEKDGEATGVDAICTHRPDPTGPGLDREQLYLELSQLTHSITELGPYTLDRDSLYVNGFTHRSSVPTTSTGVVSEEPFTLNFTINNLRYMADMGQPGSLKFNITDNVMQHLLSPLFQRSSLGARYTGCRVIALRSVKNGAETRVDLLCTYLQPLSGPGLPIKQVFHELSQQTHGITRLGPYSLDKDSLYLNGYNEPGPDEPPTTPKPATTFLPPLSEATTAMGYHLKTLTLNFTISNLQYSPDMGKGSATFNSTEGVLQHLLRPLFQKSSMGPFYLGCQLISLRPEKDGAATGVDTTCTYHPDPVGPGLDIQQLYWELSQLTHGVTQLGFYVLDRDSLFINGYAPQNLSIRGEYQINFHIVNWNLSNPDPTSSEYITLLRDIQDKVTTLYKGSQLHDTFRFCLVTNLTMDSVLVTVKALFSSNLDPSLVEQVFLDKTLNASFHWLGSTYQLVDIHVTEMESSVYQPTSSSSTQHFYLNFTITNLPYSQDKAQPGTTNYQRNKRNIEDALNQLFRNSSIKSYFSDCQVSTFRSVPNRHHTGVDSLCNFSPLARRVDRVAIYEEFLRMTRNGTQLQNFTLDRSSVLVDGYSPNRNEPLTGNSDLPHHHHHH
Text: (§1) The binding affinity of the anti-MUC-16 antibodies for the membrane-proximal end of the extracellular region of the human MUC16 protein (human MUC16-His, Table 26) and the membrane-proximal end of the extracellular region of the rhesus monkey MUC16 protein (rhesus monkey MUC16-His, Table 26) was detected by ForteBio Octet RED96, respectively. According to the manufacturer's instructions, an AHC sensor (ForteBio, Cat #18-5060) was placed in a running buffer (lx PBS, Hyclone, Cat #SH30256.01, containing 0.02% Tween 20, pH 7.0) and pre-equilibrated at room temperature for 10 min. In a 96-well plate, the kinetic assay was performed according to the following steps: a) equilibrating the baseline for 100 s with the running buffer; b) diluting the anti-MUC-16 antibodies with the running buffer to 5 μg/mL, immobilizing for 200 s, and stopping; c) equilibrating the baseline for 300 s with the running buffer; and d) diluting the human or rhesus monkey MUC16 protein with the running buffer to 50 nM, binding for 200 s, and dissociating for 600 s. The experimental data were fitted and calculated using a Fortebio Data Analysis software 1:1 binding model.

[3] = target: T3, Rhesus monkey MUC16-His (rhesus monkey); test: as above
T3 construct: The entry includes the C-terminal 6xHis tag; also called membrane-proximal end of the extracellular region of the rhesus monkey MUC16 protein
T3 chain: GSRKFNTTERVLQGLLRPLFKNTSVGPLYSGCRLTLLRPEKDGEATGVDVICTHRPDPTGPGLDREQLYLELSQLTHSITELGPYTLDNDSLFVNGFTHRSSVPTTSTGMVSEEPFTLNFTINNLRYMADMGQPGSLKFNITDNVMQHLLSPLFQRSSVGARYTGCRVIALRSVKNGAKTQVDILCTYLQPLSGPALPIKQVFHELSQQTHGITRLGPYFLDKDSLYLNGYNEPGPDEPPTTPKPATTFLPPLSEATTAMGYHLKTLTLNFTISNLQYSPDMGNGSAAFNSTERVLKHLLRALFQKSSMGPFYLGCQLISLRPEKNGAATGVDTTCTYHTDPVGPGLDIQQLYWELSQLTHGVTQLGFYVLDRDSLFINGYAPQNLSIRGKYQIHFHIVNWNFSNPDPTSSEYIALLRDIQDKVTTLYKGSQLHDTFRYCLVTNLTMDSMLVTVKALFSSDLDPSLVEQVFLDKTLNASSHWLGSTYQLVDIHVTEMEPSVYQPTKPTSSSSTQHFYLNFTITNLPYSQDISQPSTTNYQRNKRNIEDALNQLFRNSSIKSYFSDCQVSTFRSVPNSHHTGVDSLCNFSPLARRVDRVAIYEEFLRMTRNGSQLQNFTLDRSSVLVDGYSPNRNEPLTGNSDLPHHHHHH
Text: as §1

B1: anti-MUC16 antibody 776.1(C33S) (antibody, human IgG1, kappa, L234A L235A, V domains shown)
VH: EVQLQQSGPELVKPGASVKISCKASGYTFTDYNIHWVKQSHGKILEWIGYIYPYNGVSDYNQNFKSKATLIVDNSSNTAYMELRSLTSEDSAVYYCARWDFGSGYYFDYWGQGTTLTVSS
VL: QIVLSQSPAILFASPGETVTMTCRASSSVIYMSWNQQKPGSSPKPWIYGTSTLASGVPTRFSGSGSGTSYSLTISRVEAEDAATYYCQQWSSNPFTFGSGTKLEIKR
EC50 [1]: 12.9 nM | Kd [2]: 0.921 nM | koff [2]: 0.000245 s⁻¹ | kon [2]: 266000 M⁻¹ s⁻¹ | Kd [3]: 1.03 nM | koff [3]: 0.000826 s⁻¹ | kon [3]: 803000 M⁻¹ s⁻¹
